This test addresses 3β-OH-Δ5-6-cholesterol-5β-reductase (5βChR) from Limosilactobacillus fermentum NKN51 (Limosilactobacillus fermentum NKN51). Nature of the test: SEC. Background: Size exclusion chromatography separates by hydrodynamic size, large species first.

This note sets out measurements from publication doi:10.1101/2024.06.04.597308.

As usually defined, the stoichiometry N is a count of units in the complex or per binding partner. On to “3β-OH-Δ5-6-cholesterol-5β-reductase (5βChR) from Limosilactobacillus fermentum NKN51 (enzyme)”, for which the stoichiometry N is 2.
